# Assay results from patent publication US20210380702A1.
# Target: recombinant human PD-L1 (amino acids 19-239 of NP_054862.1) expressed with a C-terminal human IgG1 Fc tag (human)
# Test: SPR (Biacore 3000): 100 nM hPD-L1-hFc + 500 nM mAb on captured hPD-1-mFc, 25C
# Sequence of recombinant human PD-L1 (amino acids 19-239 of NP_054862.1) expressed with a C-terminal human IgG1 Fc tag (human) (chain, as listed by the source limits assumed): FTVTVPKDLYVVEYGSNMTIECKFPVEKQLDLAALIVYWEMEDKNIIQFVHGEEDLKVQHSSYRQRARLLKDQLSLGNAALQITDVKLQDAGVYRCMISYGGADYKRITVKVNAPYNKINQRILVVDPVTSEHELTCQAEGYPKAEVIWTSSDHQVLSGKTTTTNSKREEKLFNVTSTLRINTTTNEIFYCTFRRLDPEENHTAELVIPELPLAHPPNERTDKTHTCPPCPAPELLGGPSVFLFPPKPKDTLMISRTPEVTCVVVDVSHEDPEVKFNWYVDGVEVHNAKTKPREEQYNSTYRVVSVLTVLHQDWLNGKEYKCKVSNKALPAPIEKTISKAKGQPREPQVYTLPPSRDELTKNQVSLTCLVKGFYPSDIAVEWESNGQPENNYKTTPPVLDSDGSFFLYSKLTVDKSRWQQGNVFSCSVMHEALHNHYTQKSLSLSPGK
substance,measurement,value
"Isotype control antibody (Table 13, Biacore assay of human Fc antibodies)",% Blocking,0%
